Legend:
[1] = target: HLA-A*68:02; test: IEDB peptide-MHC binding, cellular MHC/competitive/fluorescence; ≥ and ≤ were set here for values at or beyond the usual limits of such assays
[2] = target: HLA-A*02:02; test: as above
[3] = target: HLA-A*11:01; test: as above
[4] = target: HLA-A*68:01; test: as above
[5] = target: HLA-A*02:03; test: as above; settings: source organism: Hepatitis B virus
[6] = target: HLA-A*31:01; test: as above
[7] = target: HLA-A*02:06; test: as above; settings: source organism: Hepatitis B virus
[8] = target: HLA-A*03:01; test: IEDB peptide-MHC binding, purified MHC/competitive/radioactivity; ≥ and ≤ were set here for values at or beyond the usual limits of such assays; settings: source organism: Hepatitis B virus
[9] = target: HLA-A*02:01; test: as above
[10] = target: HLA-A*02:02; test: as above
[11] = target: HLA-A*02:03; test: as above
[12] = target: HLA-A*30:02; test: IEDB peptide-MHC binding, cellular MHC/competitive/fluorescence; ≥ and ≤ were set here for values at or beyond the usual limits of such assays; settings: source organism: Vaccinia virus WR
[13] = target: HLA-A*24:02; test: as above; settings: source organism: Vaccinia virus WR
[14] = target: HLA-A*26:01; test: as above; settings: source organism: Vaccinia virus WR
[15] = target: HLA-A*01:01; test: as above; settings: source organism: Vaccinia virus WR
[16] = target: HLA-A*29:02; test: as above; settings: source organism: Vaccinia virus WR
[17] = target: HLA-A*68:02; test: IEDB peptide-MHC binding, purified MHC/competitive/radioactivity; ≥ and ≤ were set here for values at or beyond the usual limits of such assays
[18] = target: HLA-A*23:01; test: as above; settings: source organism: Vaccinia virus WR
[19] = target: HLA-A*02:06; test: as above
[20] = target: HLA-A*68:01; test: as above; settings: source organism: Hepatitis B virus
[21] = target: HLA-A*31:01; test: as above; settings: source organism: Hepatitis B virus
[22] = target: HLA-A*23:01; test: IEDB peptide-MHC binding, cellular MHC/competitive/fluorescence; ≥ and ≤ were set here for values at or beyond the usual limits of such assays; settings: source organism: Vaccinia virus WR
[23] = target: HLA-A*02:01; test: as above; settings: source organism: Vaccinia virus WR
[24] = target: HLA-A*03:01; test: as above; settings: source organism: Mammarenavirus juninense
[25] = target: HLA-A*33:01; test: as above; settings: source organism: Mammarenavirus juninense
[26] = target: HLA-A*30:02; test: IEDB peptide-MHC binding, purified MHC/competitive/radioactivity; ≥ and ≤ were set here for values at or beyond the usual limits of such assays; settings: source organism: Vaccinia virus WR
[27] = target: HLA-A*24:02; test: as above; settings: source organism: Vaccinia virus WR
[28] = source organism: Hepatitis B virus
[29] = source organism: Vaccinia virus WR
[30] = source organism: Mammarenavirus juninense

CLRRFIIFL
IC50 [1, 28]: 48.8 µM
IC50 [2, 28]: 7.11 µM
IC50 [3, 28]: ≥ 70 µM
IC50 [4, 28]: ≥ 70 µM
IC50 [5]: 14.6 µM
IC50 [6, 28]: 6.65 µM
IC50 [7]: 10.1 µM
IC50 [8]: 2.63 µM
IC50 [9, 28]: 1.39 µM

HLYSHPIIL
IC50 [1, 28]: 22.7 µM
IC50 [3, 28]: ≥ 70 µM
IC50 [4, 28]: ≥ 70 µM
IC50 [6, 28]: 46 µM
IC50 [7]: 9.45 µM
IC50 [8]: 0.171 µM
IC50 [10, 28]: 0.081 µM
IC50 [11, 28]: 0.018 µM

VQSVLRDISI
IC50 [12]: 19.7 µM
IC50 [13]: 25.4 µM
IC50 [14]: 6.66 µM
IC50 [15]: 15.6 µM
IC50 [16]: ≥ 70 µM
IC50 [17, 29]: 1.29 µM
IC50 [18]: 3.5 µM
IC50 [10, 29]: 0.078 µM
IC50 [11, 29]: 0.541 µM
IC50 [19, 29]: 0.132 µM
IC50 [9, 29]: 0.497 µM

FIIFLFILLL
IC50 [3, 28]: 7.47 µM
IC50 [17, 28]: 0.737 µM
IC50 [8]: 0.139 µM
IC50 [10, 28]: 0.441 µM
IC50 [20]: 3.7 µM
IC50 [11, 28]: 0.181 µM
IC50 [21]: 0.692 µM
IC50 [19, 28]: 1.42 µM
IC50 [9, 28]: 0.105 µM

LLVPFVQWFV
IC50 [3, 28]: 8.09 µM
IC50 [4, 28]: 45.2 µM
IC50 [5]: 10.5 µM
IC50 [17, 28]: 0.068 µM
IC50 [8]: 0.476 µM
IC50 [10, 28]: 0.00017 µM
IC50 [21]: 0.161 µM

QQFANVISKI
IC50 [12]: 9.29 µM
IC50 [22]: 12.2 µM
IC50 [13]: ≥ 70 µM
IC50 [14]: ≥ 70 µM
IC50 [15]: ≥ 70 µM
IC50 [16]: ≥ 70 µM
IC50 [23]: 7.32 µM
IC50 [17, 29]: 1.05 µM
IC50 [10, 29]: 0.051 µM
IC50 [11, 29]: 0.0017 µM
IC50 [19, 29]: 0.863 µM

ACQEAVKLK
IC50 [24]: 16.7 µM
IC50 [25]: ≥ 70 µM
IC50 [3, 30]: 6.7 µM
IC50 [4, 30]: ≥ 70 µM
IC50 [6, 30]: ≥ 70 µM

CQCTVQEFI
IC50 [12]: ≥ 70 µM
IC50 [22]: 44.5 µM
IC50 [13]: 29 µM
IC50 [14]: 24.8 µM
IC50 [15]: 28.5 µM
IC50 [16]: 20.5 µM
IC50 [17, 29]: 1.73 µM
IC50 [10, 29]: 2.05 µM
IC50 [11, 29]: 4.79 µM
IC50 [19, 29]: 1.13 µM
IC50 [9, 29]: 2.2 µM

FLFILLLCL
IC50 [2, 28]: 7.02 µM
IC50 [3, 28]: 19 µM
IC50 [4, 28]: 26.9 µM
IC50 [17, 28]: 1.2 µM
IC50 [8]: 0.664 µM
IC50 [11, 28]: 1.57 µM
IC50 [21]: 1.47 µM
IC50 [19, 28]: 1.78 µM
IC50 [9, 28]: 0.213 µM

RQVSVKLLI
IC50 [1, 29]: 15.1 µM
IC50 [14]: 6.34 µM
IC50 [2, 29]: 17.9 µM
IC50 [15]: 23.8 µM
IC50 [16]: ≥ 70 µM
IC50 [26]: 0.519 µM
IC50 [18]: 0.835 µM
IC50 [27]: 2.54 µM
IC50 [11, 29]: 0.254 µM
IC50 [19, 29]: 0.00013 µM
IC50 [9, 29]: 0.25 µM

YQNEVTPEYI
IC50 [12]: 8.74 µM
IC50 [1, 29]: 8.57 µM
IC50 [22]: 26.9 µM
IC50 [13]: ≥ 70 µM
IC50 [14]: ≥ 70 µM
IC50 [15]: ≥ 70 µM
IC50 [16]: 19.4 µM
IC50 [10, 29]: 0.0027 µM
IC50 [11, 29]: 0.00021 µM
IC50 [19, 29]: 0.0026 µM
IC50 [9, 29]: 0.0081 µM

TQVKELGIAI
IC50 [12]: ≥ 70 µM
IC50 [22]: 38.6 µM
IC50 [13]: ≥ 70 µM
IC50 [14]: 49.6 µM
IC50 [15]: ≥ 70 µM
IC50 [16]: ≥ 70 µM
IC50 [17, 29]: 1.18 µM
IC50 [10, 29]: 2.17 µM
IC50 [11, 29]: 0.704 µM
IC50 [19, 29]: 0.0039 µM
IC50 [9, 29]: 1.76 µM

ILLLCLIFL
IC50 [1, 28]: 12.1 µM
IC50 [3, 28]: 13.8 µM
IC50 [4, 28]: 30.3 µM
IC50 [8]: 0.624 µM
IC50 [10, 28]: 1.12 µM
IC50 [11, 28]: 1.53 µM
IC50 [21]: 1.48 µM
IC50 [19, 28]: 0.145 µM

LLWFHISCL
IC50 [1, 28]: ≥ 70 µM
IC50 [3, 28]: 32.5 µM
IC50 [4, 28]: ≥ 70 µM
IC50 [6, 28]: 8.85 µM
IC50 [8]: 3.26 µM
IC50 [10, 28]: 0.307 µM
IC50 [19, 28]: 0.382 µM

— the Immune Epitope Database (IEDB)
